# Residue numbers refer to the chain shown, from its start.
# T1: human complement C2 (wild type) (human, UniProt P06681 21-752)
# T1 construct: Full-length human C2 (NP_000054) with C-terminal 8x His tag, secreted from Expi293F cells and purified from the supernatant; also called WT; huC2
# T1 sequence: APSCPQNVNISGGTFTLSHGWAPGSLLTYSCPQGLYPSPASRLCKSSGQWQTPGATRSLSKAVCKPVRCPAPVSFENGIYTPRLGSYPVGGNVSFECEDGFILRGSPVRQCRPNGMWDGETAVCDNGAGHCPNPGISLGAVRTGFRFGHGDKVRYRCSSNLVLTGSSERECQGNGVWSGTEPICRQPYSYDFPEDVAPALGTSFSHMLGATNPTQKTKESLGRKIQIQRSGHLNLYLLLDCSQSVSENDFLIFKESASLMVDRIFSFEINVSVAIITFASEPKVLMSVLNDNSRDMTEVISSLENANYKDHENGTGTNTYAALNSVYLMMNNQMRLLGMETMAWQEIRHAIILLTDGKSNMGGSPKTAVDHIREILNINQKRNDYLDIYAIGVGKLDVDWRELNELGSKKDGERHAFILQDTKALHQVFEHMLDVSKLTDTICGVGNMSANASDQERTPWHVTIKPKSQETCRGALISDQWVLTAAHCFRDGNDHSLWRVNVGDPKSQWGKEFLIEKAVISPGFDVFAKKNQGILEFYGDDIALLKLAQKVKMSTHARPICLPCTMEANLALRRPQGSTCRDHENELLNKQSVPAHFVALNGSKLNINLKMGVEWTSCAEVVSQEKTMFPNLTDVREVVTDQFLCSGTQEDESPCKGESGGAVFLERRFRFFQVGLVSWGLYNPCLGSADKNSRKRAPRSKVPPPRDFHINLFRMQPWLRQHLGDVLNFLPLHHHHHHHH
# T2: human C2 D419A (human, UniProt P06681 21-752)
# T2 sequence: T1 sequence with D399A
# T3: human C2 H451A (human, UniProt P06681 21-752)
# T3 sequence: T1 sequence with H431A
# B1: RF16-242 (antibody, human IgG4 S228P, lambda, V domains shown)
# VH: EVQLLQSGAEVKKPGESLKISCKGSGYSFTSYWIGWVRQMPGKGLEWMGIIYPGDSDTRYSPSFQGQVTISADKSISTAYLQWSSLKASDTAMYYCARRGHYGDYFDYWGQGTLVTVSS
# VL: SYELTQPPSVSVSPGQTARITCSGDALPKKYAYWYHQKSGQAPVLVIYEDRRRPSEIPERFSGSSSGTMATLTITGAQVEDEGVYFCYSRDRAGNQRVFGGGTQLTVLG
# notes: pH-dependent anti-C2 antibody from a phage display library
# Tests used:
# Assay in all cases: SPR, antibody captured, C2 as analyte;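 note: biacore at 37 °C, anti-C2 mAbs held by immobilised goat anti-human IgG, C2 alanine or serine mutants injected, double-referenced sensorgrams fitted to a 1:1 kinetic or steady-state model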
# [1] = molecular target: T1, human complement C2 (wild type)
# human C2 D419A = molecular target: T2, human C2 D419A
# human C2 H451A = molecular target: T3, human C2 H451A
binder,measurement,setting,value
B1,Kd,[1],0.007 µM
same,Kd,human C2 D419A,0.0105 µM
same,Kd,human C2 H451A,0.0213 µM
